Results from the RNAGym collection of RNA variant scans (doi:10.7554/elife.80360).

B1: Hairpin Ribozyme (parent)
chain: GUCCUCUUUCACGUGCGCGUGAAAGAGAGAAGUGAACCAGAGAAACACACGUUGUGGUAUAUUACCUGGUA

Variants of: B1
Assay: self-cleavage, relative activity (ratio to wild type); higher = more cleavage; co-transcriptional
For C3U U7C, the self-cleavage was 0.553.
C3U U7G gave a self-cleavage of 0.464.
C3U U8A gave a self-cleavage of 0.361.
Variant C3U U14G has a self-cleavage of 0.442.
C3U U20G showed a self-cleavage of 0.561.
Work on C3U U33A yielded a self-cleavage of 0.147.
With C3U U33C the self-cleavage was 0.167.
For C3U U33G, the self-cleavage was 0.126.
C3U U53A gave a self-cleavage of 0.495.
C3U U55A gave a self-cleavage of 0.0909.
With C3U U55G the self-cleavage was 0.208.
C3U U58G showed a self-cleavage of 0.404.
Variant C3U U62A has a self-cleavage of 0.158.
Variant C3U U63C has a self-cleavage of 0.264.
C3U U63G showed a self-cleavage of 0.12.
For C3U U67G, the self-cleavage was 0.164.
With C3U U70G the self-cleavage was 0.371.
With C4A A11G the self-cleavage was 0.158.
Work on C4A A11U yielded a self-cleavage of 0.258.
C4A A23U showed a self-cleavage of 0.251.
C4A A24U showed a self-cleavage of 0.196.
Work on C4A A30G yielded a self-cleavage of 0.105.
C4A A30U gave a self-cleavage of 0.228.
Work on C4A A31C yielded a self-cleavage of 0.131.
Variant C4A A35G has a self-cleavage of 0.33.
Work on C4A A35U yielded a self-cleavage of 0.188.
C4A A36G showed a self-cleavage of 0.198.
Work on C4A A39U yielded a self-cleavage of 0.0907.
C4A A41C showed a self-cleavage of 0.322.
C4A A41U showed a self-cleavage of 0.504.
C4A A43U gave a self-cleavage of 0.184.
Variant C4A A45C has a self-cleavage of 0.167.
C4A A47C showed a self-cleavage of 0.205.
In the case of C4A A47G, the self-cleavage is reported as 0.188.
Variant C4A A64C has a self-cleavage of 0.156.
C4A A64U gave a self-cleavage of 0.0608.
Work on C4A A71U yielded a self-cleavage of 0.138.
For C4A C6A, the self-cleavage was 0.166.
In the case of C4A C12U, the self-cleavage is reported as 0.319.
With C4A C16A the self-cleavage was 0.202.
C4A C18A showed a self-cleavage of 0.13.
Variant C4A C38A has a self-cleavage of 0.104.
Variant C4A C38G has a self-cleavage of 0.175.
In the case of C4A C46G, the self-cleavage is reported as 0.165.
Variant C4A C46U has a self-cleavage of 0.17.
C4A C48A gave a self-cleavage of 0.131.
For C4A C50U, the self-cleavage was 0.13.
In the case of C4A C65A, the self-cleavage is reported as 0.148.
Variant C4A G13U has a self-cleavage of 0.248.
C4A G17U gave a self-cleavage of 0.148.
C4A G19U gave a self-cleavage of 0.221.
In the case of C4A G21A, the self-cleavage is reported as 0.165.
In the case of C4A G25C, the self-cleavage is reported as 0.153.
Variant C4A G29C has a self-cleavage of 0.118.
Variant C4A G29U has a self-cleavage of 0.111.
In the case of C4A G34U, the self-cleavage is reported as 1.01.
In the case of C4A G42U, the self-cleavage is reported as 0.115.
With C4A G51A the self-cleavage was 0.232.
Work on C4A G51U yielded a self-cleavage of 0.148.
Work on C4A G56C yielded a self-cleavage of 0.157.
Variant C4A G68U has a self-cleavage of 0.111.
For C4A G69C, the self-cleavage was 0.156.
C4A U7A showed a self-cleavage of 0.175.
Variant C4A U7C has a self-cleavage of 0.147.
C4A U8A showed a self-cleavage of 0.16.
In the case of C4A U8C, the self-cleavage is reported as 0.113.
For C4A U9C, the self-cleavage was 0.163.
Variant C4A U9G has a self-cleavage of 0.151.
Work on C4A U20C yielded a self-cleavage of 0.267.
Variant C4A U33A has a self-cleavage of 0.174.
C4A U33C showed a self-cleavage of 0.132.
Variant C4A U52A has a self-cleavage of 0.206.
For C4A U53G, the self-cleavage was 0.27.
C4A U58A showed a self-cleavage of 0.113.
In the case of C4A U58G, the self-cleavage is reported as 0.183.
C4G A22C showed a self-cleavage of 0.206.
For C4G A24C, the self-cleavage was 0.177.
C4G A24G showed a self-cleavage of 0.256.
Work on C4G A24U yielded a self-cleavage of 0.183.
C4G A26U gave a self-cleavage of 0.204.
For C4G A28G, the self-cleavage was 0.443.
With C4G A28U the self-cleavage was 0.0783.
Variant C4G A30C has a self-cleavage of 0.178.
With C4G A30U the self-cleavage was 0.175.
